Experimental data from article PMC4764080 (Cell, 2009).
One block for each molecule: values may come before it. Square brackets hold non-standard residues; d marks the D form. pY = N[C@@H](Cc1ccc(OP(=O)(O)O)cc1)C(=O)O

Experiments:
[1] = system: PLCγ pY783; assay: Tyrosine phosphorylation of PLCγ; type: cell-based; conditions: L6 myoblasts stably expressing FGFR1; 100 ng/mL FGF, 5 min, 37 °C; anti-pY783 (PLCγ) immunoblot
[2] = target: FGFR1-3P (trisphosphorylated cytoplasmic region of FGFR1: tyrosine kinase domain and C-terminal tail) (UniProt P11362); assay: ITC
[3] = target: FGFR1-3P (trisphosphorylated cytoplasmic region of FGFR1: tyrosine kinase domain and C-terminal tail) (UniProt P11362); assay: SPR
[4] = target: FGFR1-3P (trisphosphorylated cytoplasmic region of FGFR1: tyrosine kinase domain and C-terminal tail) (UniProt P11362); assay: SPR; remark: listed apart in the source
[5] = target: pY766 peptide (synthetic phosphopeptide of the C-terminal region of FGFR1, TSNQEpYLDLSM); assay: SPR
[6] = target: FGFR1-3P(RD/VV) (UniProt P11362); assay: ITC
[7] = target: FGFR1-3P(VV/DD) (UniProt P11362); assay: ITC
[8] = target: T1, isolated C-SH2 domain of PLCγ (rat); assay: ITC
T1 sequence (P10686 whole entry, looked up): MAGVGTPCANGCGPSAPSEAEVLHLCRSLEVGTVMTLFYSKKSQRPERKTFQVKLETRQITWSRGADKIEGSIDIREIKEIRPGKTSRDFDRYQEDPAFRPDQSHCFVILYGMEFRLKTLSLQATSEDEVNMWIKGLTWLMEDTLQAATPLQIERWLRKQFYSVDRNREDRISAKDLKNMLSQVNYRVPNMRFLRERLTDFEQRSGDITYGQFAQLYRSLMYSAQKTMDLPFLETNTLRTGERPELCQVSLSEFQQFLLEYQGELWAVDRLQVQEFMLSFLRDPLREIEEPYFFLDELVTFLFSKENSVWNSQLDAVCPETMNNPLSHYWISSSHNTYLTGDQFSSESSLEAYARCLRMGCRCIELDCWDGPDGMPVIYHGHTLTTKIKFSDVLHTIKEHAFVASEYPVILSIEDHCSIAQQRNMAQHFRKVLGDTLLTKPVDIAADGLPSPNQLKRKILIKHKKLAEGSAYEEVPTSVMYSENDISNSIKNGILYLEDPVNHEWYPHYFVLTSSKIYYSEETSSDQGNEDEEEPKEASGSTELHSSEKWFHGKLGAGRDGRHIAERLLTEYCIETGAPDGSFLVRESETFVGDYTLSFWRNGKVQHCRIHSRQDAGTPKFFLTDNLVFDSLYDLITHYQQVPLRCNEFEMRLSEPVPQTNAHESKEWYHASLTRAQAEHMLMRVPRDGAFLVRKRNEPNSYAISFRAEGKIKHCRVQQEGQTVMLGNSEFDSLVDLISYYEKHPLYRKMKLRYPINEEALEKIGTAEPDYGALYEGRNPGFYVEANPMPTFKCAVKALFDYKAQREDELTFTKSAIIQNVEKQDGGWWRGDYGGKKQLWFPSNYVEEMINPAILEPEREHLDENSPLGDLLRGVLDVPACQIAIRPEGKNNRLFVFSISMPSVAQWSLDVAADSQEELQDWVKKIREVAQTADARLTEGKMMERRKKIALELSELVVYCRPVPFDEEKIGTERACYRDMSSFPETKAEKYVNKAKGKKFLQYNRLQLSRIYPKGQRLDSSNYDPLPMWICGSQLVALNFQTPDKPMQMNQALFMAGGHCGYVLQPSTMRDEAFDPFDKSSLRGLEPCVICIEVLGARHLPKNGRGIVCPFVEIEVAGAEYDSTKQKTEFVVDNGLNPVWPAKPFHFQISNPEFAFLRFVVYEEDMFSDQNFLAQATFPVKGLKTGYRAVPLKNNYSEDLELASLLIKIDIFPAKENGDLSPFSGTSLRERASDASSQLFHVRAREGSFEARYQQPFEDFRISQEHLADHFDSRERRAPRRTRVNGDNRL

[9] = target: T2, isolated N-SH2 domain of PLCγ (rat); assay: ITC
T2 sequence (P10686 whole entry, looked up): T1 sequence (P10686 whole entry, looked up)

Molecule: FGFR1(Y766F): FGFR1 mutant Y766F in the primary binding site for the N-SH2 domain, expressed in L6 myoblasts
tyrosine phosphorylation of PLCγ [1]: negligible tyrosine phosphorylation of PLCγ

Molecule: WT FGFR1: wild type FGFR1 stably expressed in L6 myoblasts
tyrosine phosphorylation of PLCγ [1]: tyrosine phosphorylation of PLCγ

Kd [2]: 0.49 µM
Molecule: isolated C-SH2 domain of PLCγ (domain or fragment)

Kd [3]: 0.044 µM | Kd [4]: 0.142 µM | Kd [5]: 5.67 µM | Kd [2]: 0.033 µM | Kd [6]: 0.112 µM | Kd [7]: 0.221 µM
Molecule: isolated N-SH2 domain of PLCγ (domain or fragment)

Kd [8]: 1.81 µM | Kd [9]: 0.433 µM
Molecule: {biotin‑XX}-TSNQE[pY]LDLSM-NH2 [pY766 peptide (synthetic phosphopeptide of the C-terminal region of FGFR1, TSNQEpYLDLSM)]
